Experimental data taken from the nanobody polyreactivity screen of Harvey et al. (2022).

Experiment: yeast display, Sf9 membrane polyspecificity reagent, FACS + sequencing; frameworks hold sequencing errors
Procedure, shortened: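 Galactose-induced (36–48 hours) yeast carrying a synthetic nanobody display library were exposed to 10% biotinylated, detergent-solubilized Sf9 membrane reagent at 4 °C for 1 hour. FACS followed streptavidin microbead enrichment, using low and high (top ~1%) gates for expression (anti-HA) and reagent binding (streptavidin). Colony PCR, MiSeq 2 × 250 sequencing and CDR-length filtering followed. Labels for polyreactivity reflect the gate of origin.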

Sequence | polyreactivity (PSR sort gate)
QVQLVDSGGGLVQAGGSLRLSCAASGGIFRQNVMGWYRQAPGKERELVAAISRRGGITYYAEAVKGRFTISRDNAKNTVYLQMNSLKPEDTAVYYCNKKPTWDYSYWGQGTQVTVSS | high polyreactivity
QVQLVESGGGLVQAGGSLRLSCAASGRTFCGYTMGWYRQAPGKERELVAAITKRGGSTYYADSVKGRFTISRDNAKNTVYLQMNSLKPEDTAVYYCAKTKTAGTIKYDYWGQGTQVTVSS | high polyreactivity
QVQLVESGGGLVQAGGSLRLSCAASGRIFYRYAMGWYRQAPGKERELVASIRFSDGSTYYADSVKGRFTISRDNAKNTVYLQMNSLKPEDTALYYCAARPLRSRNGYYWGQGTQVTVSS | high polyreactivity
QVQLVESAGGLVQAGGSLRLSCAASGFSFYYNTMGWYRQAPGTEWELVASITWSGDTTYYADSVKGRFTISRDNAKNTVYLQMNSLKPEDTAVYYCAAVPYYPYRRYDYWGQGTQVTVAS | low polyreactivity
QVQLEESGGRLVQAGGSLRLSCAASGGIFADYAMGWDRPAPGKERELVADISARGGSTYYADSVKGRFTISRDNAKNTVYLQMNSLKPEDTAVYYCAADALGYDYYYWGQGTQVTVSS | low polyreactivity
QVQLVESGGGLVQAGGSLRLSCAASGFTFRYYVMGWYRQAPGKEGELVAAISWSGGTTYYADSVKGRFTISRDNAKNTVYLQMNSLKPEDTAVYYCAADVYLNRRQRMYFWGQGSQVTVSS | high polyreactivity
QVQLVESGGGLVQAGGSLRLSCAASGITFQYYAMGWYRQAPGKERELVAAISSGGSTYYADSVKGRFTISRDNAKNTVYLQMNSLKPEDTAVYYCAAKRVFFGLNYDYWGQGTQVTVSS | high polyreactivity
QVQRVESGGGLVQAGGSLRLSCAASGRIFSWYTMGWYRQAPGKERELVAVITSGGTTKYADSVKGRFTISRDNAKNTVYLQMNSLKPEDTAVYYCNVAGRDYAVRWGSFDYWGQGTQVTVSS | low polyreactivity
QVQRVESGGGLVQAGGSLRLSCAASGANFSRYAMGWYRPAPGKERELVAAITSGGSTNYADSVKGRFTISRDNAKNTVYLQMTSLKPEDTAVYYCNKRYVVYPGNYWRYDYWGQGTQVTVSS | high polyreactivity
QVQLVESGGGLVQAGGILRLSCAASGYILYGYAMGWYTQAPGKERELVAAISNDGSTYYADSVKGRFTISRDNAKNTVYLQMNSLKPEDTAVYYCNADAWRKVPHPGTGGRDYWGQGTQVTVSS | high polyreactivity
QVQLVESGGGLVQAGGSLRLSCAASGSTFPVYAMGWYRQAPGKERELVAAISRAGSTNYADSVKGRFTISRDNAKNTVYLQMNSLKPEDTAVYYCAARGYLWAGEWYVRRDYWGQGTQVTVSS | high polyreactivity
QVQLVESGGGLDQAGGSLRLSCAASGFIFITYEMGWYRQAPGKQMELVAVITSGGTTNYADSVKGRFTISRDNAKNTVYLQMNSLKPEDTAVYYCAAEDYVIGDSGYDYWGQGTQVTVSS | low polyreactivity
QVQLVESGGGLVQAGGSLRLSCAASGRIFKDNAMGWYRQAPGKERELLATIDSGGDTNYADSVKGRFTISRDNAKNTVYLQMNSLKPEDTAVYYCNTEGFLSAVFAFGYWGQGTQVTVSS | low polyreactivity
QVQLVESGGRLVQAGGSHRLSCAASGRTFVENAMGWYRQAPGQEREFVAAISSSGDSTYYADSVKGRFTISRDNEKYTVYLKMNSLNPEDTAVYYCAARVYSRGLFYWGEGTQVTVSS | low polyreactivity
QVQLVESGGGLVPAGGSLRLSCAASGNNFRANTMGWYRQARGKERELVASIRRSGGSSYYADSVKGRFTISRDNAKNTVYLQMNSLKPEDTAAYYCAAESRPPYTDNYYWGQGTQVTVSS | high polyreactivity
QDQLVESGVGIVQAGRSLRLSCAASGFTFSGYAMGWDRQAPGKERELVAAINWRGDSTYYADSVKGRFTISRDNAKNTVYLQMNSLKPEDTAVYYCNVVLGPQRYSTDYGYWGQGTQVTVSS | high polyreactivity
QVQLVDSGGRLVQAGGSLRLSCSASGIIIPSYAMGWYRQAPGKERELVAAISGRGGRTYYSDSVKGRFTISRDNAKNSVYLQMNSLKPEDTAVYYCAASGTSSSRKSYYWGQGTQVTVSS | high polyreactivity
QVQLVESGGGLVQAGGSLRLSCAASGRIFSNNAMGWYRQAPGKERELVATITGSGGRTYYADSVKGRFTISRDIAKNSVYLQMNSLKPEDTAVYYCNADLYSYYWRVRYGLDYWGQGTQVTVSS | high polyreactivity
QVQLVESGGGLVQAGGSLRLSCAASGFTFDNYAMGWYRQEPGKERELVAAINISGGRTYYADSVKGRFTISRDNAKNTVYLQMNSLKPEDTAVYYCNIYYWYYALDYWGQGTQVTVSS | high polyreactivity
QVQLEESGGGLVQAGGSLRLSCAASGSIFVYYGMGWYRQAPGKERELVAAISSGGSTHYADSVKGRFTISRDNAKNTVYLQMNSLKPEDTAVYYCNARAYGNGLGTGYFGKHRYDYWGQGTQVTVSS | low polyreactivity
QVQLVESGGGLVQAGGSLRLSCAASGIIFWYNARGWYRQAPGKERELVASISTGGRTYYADSVKGRFTISRDNAKNTVYLQMNSLKPEDTAVYYCAAASRVGFLYYYWGQGTQVTVSS | low polyreactivity
QVQRVESGGGLVQAGGSLRLSCAASGRIFSNYAMGWYRQAPGKEREFVAAISGSGGSTYYADSVKGRFTISRDNAKNTVYLQMNSLKPEDTAVYYCSTSGPQYYSRNFDYWGQGTQVTVSS | low polyreactivity

Sequence | polyreactivity (PSR sort gate)
QVQLVESGGGLVHAGGSLRLSCAASGIIFVLHAMGWYRQAPGQERELVASISGIGGSTYYADSEKGRFTISRDNAKNTVYLQMNSLKPEDTAVYYCAARGWLSRYGYWGHGTQVTVSS | high polyreactivity
QVQLVESGGGLVQAGGSLRLSCAASGSTSYIYAMGWYRQAPGKERELVAAISKSGGRTYYADSVKGRFTISRDNAKNTVYLQMNSLKPEDTAVYYCAAVPGRTAEDYGEDYWGQGTQVTVSS | high polyreactivity
QVQLVESGGGLVQAGGSLRLICAASGRTFGKYAMGWYRQAPGKEMQLVAAITRRGGSTFYADSVKGRFRISRDNAKNTVYLQMNSLKPEDTAVYYCAARSTVGPQYGVRFNYWGQGTQVTVSS | high polyreactivity
QVQLQESGGGLVQAGGDLRLSCAASGNIFRDYIMGWYRQAPRKEREFVAGIDRGANTNYADSVKGRFTISRDNAKNTVYLLLNSLKPEDTAVYYCAVHTAIVPDFIYWGQGTQVTVSS | low polyreactivity
QVQLVESGGGLVQAGGSLRLSCAASGIIFRRYARGWYRQAPGKERELVAAITSGGDTNYADSVKGRFTISRDNAKNTVYLQMNSLKPEDTAVYYSNAGLRGVRRYGFDYWGQGTQVTVSS | high polyreactivity
QVQLVESGGGLVQAGGRLRLSCAASGSTFVPYAMGWSRQAPGKERELVAGITWSGGRTYYADSVKGRFTISRDNAKNTVYFQLNSLKPEDTAVYYCNVEHLVYKYDGYYSRYYRLYYWGQGTHVTVSS | low polyreactivity
QDQLVESGGGLVQAGGSLRLSCAASGSIIFFYVMGWYRQAPGKERELVAAITYSGGSTFYADSVKGRFTISRDNAKNSVYLQMNSLKPEDTAVNYCAAEYGQWTPLDPYNHWGQGTQVNVSS | low polyreactivity
QVQLVESGGGLVQAGGSLRLSCAASGSIFGYNAMGWYRQAPGKESELVAAISSSGGRTYYADSVKGRFTNSRDNAKNTVYLQMNSLKPEDTAVYYCAALGLYGDYLWYDYWGQGTQVTVSS | high polyreactivity
QVQLVESGGGLVQAGGSLRLSCAASGSIFDYYTMGCYRQAAGKERELVATIRSGDSTNYADSLKGRFTISRDIEMNRVYLQMNSLKPEDTAVYYCAAVDGAYPTLYDYWGQGTQVTVSS | low polyreactivity
QVQLVETGGGLVQAGGSLRLSCAASGRIFVFYTKGWYRQAPGKERELVARITGGGSTSYADSVKGRFTISRDNAKNTVYLQMNSLKPEDTAVYYCAAVTRRRYYGHIYGYWGQGTQVTVSS | high polyreactivity
QVQLVDSGGGLVQAGGSLRLSCAASGRIFRSYAMGWYRQAPGKERELVAGISSTGGNTYYADSVKGRFTISRDNAKNTVYLQMNSLKPEDTAVYYCAAYWFRGYKYWGQGTQVTVSS | high polyreactivity
QVQLVESGGGLVQAGGSLRLSCAASGGIAGNTMGWYRQAPGKERELVAAITRSGGRTYYADSVKGRFTISRDNAKNTVYLQMNSLKPEDTAVYYCAVTGLVRRRYGYWGQGTQVTVSS | high polyreactivity
QDQHVESGGGLVQAGGSLRLICAASGSIIQVYAIGWYRQAPGKEREFVASITRTGGSTKYADSVKGRFTISRDNAKNTVYLQMNSLKPEDTAFFYCNAVPRSWSPYRHWFDYWGQGTQVTVSS | low polyreactivity
QVQLVESGGGLVQAGGSLRLSCAASGSIFYYNTMGWSRQSPGKERELVAAINTSGGSTYYADSVKGRFTISRDNATNTDYVQLNSLKPEDTAVYYCAVRYRYRFVAKGYWGQGTQVTVSS | high polyreactivity
QVQLVESGGGLVQAGGSLRLSCADSGSIFRRNAMGWYRQAPGKERELVAGIRGSGGSTYYADSVKGRFTISRDNAKNTVYLQMNSLKPEDTAVYYCAARRSYYHGSYDYWGQGTQVTVSS | high polyreactivity
QVQLVESGGGLVQAGGSLRLSCAASGRTFSYYAMGWYRQAPGKEREFVAAISSTGTSTYYADSVKGRFTISRDNAKNTFSLQMNRLKPEDTAVYYCNARVATYRLHSKFYYWGQGTQVTVSS | high polyreactivity
QVQLVESGGGLVQAGGSLRLSCAATGRIFDYNVMGWSRQAPGKERELVADINGCGGRTNYADSVKGRFTISRDNAKNSVYLQMNSLKPEDTAVYDCAAEWYSYGARSSYGGSRNDYWGQGSQVTVSS | low polyreactivity
QVQLVESGGGLVQAGGSLRLSCAASGSTFIDYAMGWYRQAPGKERELVAAITNGGNTKYADSVKGRFTISRDNAKNTVYLLMISLNPEDTAVYYCAREPSIFTPSYDYWGQGTQVTVSS | low polyreactivity
QVQIVESGGGLVQAGGSLRISCAASGSIFVQYAMGLYRQAPGKERELVAAITTGGGTNYADSVKGRFKISRDNAKNTVYLQMNSLKPEDTAVYSCAADSRWLVRLYDYWGHGTQVTVSS | low polyreactivity
QFQLVESVGGLVQAGGILRLSCAASGRNYNSYAMGWYRKAPGKERELVAAISRTGASTYYSDSVKGRFTISRDNAKNTVYLQMNSLKPEDTAVYYCAADANSGDGYYWGQGTQVTVSS | high polyreactivity
QVQLVESGGGLVQAGDSLRLSCAASGSIFAWKTKGWYRQAPGTERELVAAISSGDSTYYADSVKGRFTISRDNAKNPVYLQMNSLKPEDTAVYYCAATYYQDRRRGYWGQGTQVTVSS | high polyreactivity
